Consider 41 sequences from the nanobody polyreactivity screen of Harvey et al. (2022).

This data set can be described thus: yeast display, Sf9 membrane polyspecificity reagent, FACS + sequencing; frameworks hold sequencing errors. The method, boiled down:
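A nanobody's polyreactivity label depends on the gate it was sorted from. Yeast display cells were stained with 10% biotinylated, detergent-solubilized Sf9 membrane reagent for 1 hour at 4 °C, enriched on streptavidin microbeads and sorted by FACS. The low and high (top ~1%) gates were set on anti-HA fluorescence for expression and streptavidin fluorescence for reagent binding.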
Consider “QVQLVESGGGLVQAGGSLRLSCAASGRIFGYNAMGWYRPAPGNERELVAAISWSGGNTYYADSVKGRFTISRDHAKNTVYLQMNSLKPEDTAVYYCNASPYRYRPSEYDYWGQGTQVTVSS”, for which the “polyreactivity (PSR sort gate)” value is recorded as “high polyreactivity”.

As to “QVQLVESGGGLVQAGGSLRLSCAASGRIFGYNAMGWYRQAPGKERELVAAINSDGSKNYADSVKGRFTISRDNAKNTVYLQMNSLKPEDTAVYYCAADGHVGPLGVSFDSWGQGSQVTVSS”, the “polyreactivity (PSR sort gate)” value is recorded as “low polyreactivity”. “QVQLVESGGGLVQAGGSLRLSCAASGRIFGYNAMGWYRQAPGKERELVAAITTSGGSTYYADSVKGRFTISRDNAKNTVYLQMNSLKPEVTAVYYCAGDSLQVFYPYASDDYWGHGTQVTVSS”: the “polyreactivity (PSR sort gate)” value was “low polyreactivity”.

For the sequence “QVQLVESGGGLVQAGGSLRLSCAASGRIFGYNAMGWYRQAPGKERELVASIRSGGSTNYADSVKGRFTISRDNAKNTVYLQMNSLKPEDTAVYYCAKSYRWHLNGGLGWRLGNYWGQGTQVTVSS”, the “polyreactivity (PSR sort gate)” value is on record as “high polyreactivity”.

As for “QVQLVESGGGLVQAGGSLRLSCAASGRIFGYNAMGWYRQAPGKERELVASITRGGSTNYADSVKGRFTISRDNAKNTVYLQMNSLKPEDTAVYYCATRWPHYGGYYYWGQGTQVTVSS”, the “polyreactivity (PSR sort gate)” value was “high polyreactivity”. As to “QVQLVESGGGLVQAGGSLRLSCAASGRIFGYNAMGWYRQATGKERELVAGITRNDGSTYYADSVKGRFTISRDNAKNTVYLLMNSLKPEDTAVYYCYRYLHLAGSWGQGTQVTVSS”, the “polyreactivity (PSR sort gate)” value was “low polyreactivity”. The same measure for “QVQLVESGGGLVQAGGSLRLSCAASGRIFGYNPMGWYRQAPGKERELVAAITTSGGSTYYADSVKGRFTISRDNAKNTVYLQMNSQKPEDTAVYYCARDSLQVFYPYASDDYWGQGTQVTVSS”: “low polyreactivity”. As for “QVQLVESGGGLVQAGGSLRLSCAASGRIFGYYAMGWFRQAPGKERELVATITFGGGSTYYADSVKGRFTISRDNAKNTVYLQMNSPKPEDTAVYYCAADSGYLGIYGDEYSWGQGTQVTVSS”, the “polyreactivity (PSR sort gate)” value is listed as “low polyreactivity”.

In the case of “QVQLVESGGGLVQAGGSLRLSCAASGRIFGYYAMGWSRQAPGKEWELVAAISSGGRTYYADSVKGRFTISRDNAKNTVYLQMNSLKPEDTAVYYCAARSRVPPAGPRYDYWGQGTQVTVSS”, the “polyreactivity (PSR sort gate)” value was “high polyreactivity”. The value for “QVQLVESGGGLVQAGGSLRLSCAASGRIFGYYAMGWYRQAPGKERELVAAISSGGNTNYADSVKGRFTISRDNAKNTVYLQMYSLKPEDTAVFYCAAYHFSFGWIRVDYWGQGTQVTVSS” was “high polyreactivity”; that for “QVQLVESGGGLVQAGGSLRLSCAASGRIFGYYAMGWYRQAPGKERELVAAISWSGGRTYYADSVKGRFTISRDNAKNTVYLQMNSLKPEDTAVYYCNKVYRVPITEEYDYWGQGTQVTVSS” was “high polyreactivity”. “QVQLVESGGGLVQAGGSLRLSCAASGRIFGYYAMGWYRQAPGKERELVAAITRNGGSTYYADSVKGRFTISRDNAKNTVYLQMNSLKPEDTAVYYCAATKGGGRGYWGQGTQVTVSS”: the “polyreactivity (PSR sort gate)” value is listed as “high polyreactivity”. The same measure for “QVQLVESGGGLVQAGGSLRLSCAASGRIFGYYAMGWYRQAPGKERELVASIRRGTRTNYADSVKGRFTISRDNAKNTVYLQMNSLKPEDTAVYYCAATRFQFTTTPWYDYWGQGTQVTVSS”: “high polyreactivity”.

Consider “QVQLVESGGGLVQAGGSLRLSCAASGRIFGYYAMGWYRQAPGKERELVAVISWSGGSTYYADSVKGRFTISRDNAMNTVYLQMNSLKPEDSAVYYCAAERLYSIYDYWGQGTQVTVSS”, for which the “polyreactivity (PSR sort gate)” value was “high polyreactivity”. “QVQLVESGGGLVQAGGSLRLSCAASGRIFGYYARGWYRQAPGKEREFVAGITQRTDSTYYADSVKGRFTISRDNAKNTVYLQMNSLKPEDTAVYFCAARGYGGYHWGYYWGQGTQVTVSS”: the “polyreactivity (PSR sort gate)” value is recorded as “high polyreactivity”. In the case of “QVQLVESGGGLVQAGGSLRLSCAASGRIFGYYTMGWYRQAPGKEREFVAAISYRGGSTYYADSVKGRFTISRDNAKNTVYLQKNSLKPEDTAVYYCNARKSYYTVRSYDSWGQGTQVTVSS”, the “polyreactivity (PSR sort gate)” value was “high polyreactivity”. The value for “QVQLVESGGGLVQAGGSLRLSCAASGRIFGYYTMGWYRQAPGKERELVATITGGGGSTYYADSVKGRFTISRDNAKNTVYLQMNSLKPEDTAVYYCAKRNWKYVSHRHSYYETYDYWGQGTQVTVSS” was “high polyreactivity”. The value for “QVQLVESGGGLVQAGGSLRLSCAASGRIFGYYVMGWYRQAPGKERELVAAINYDGGSTYYADSVKGRFTISRDNAKNTVYLQMNSLKPEDTAVYYCAAAIGNSEYGWRYDYWGQGTQVTVSS” was “low polyreactivity”; that for “QVQLVESGGGLVQAGGSLRLSCAASGRIFGYYVMGWYRQAPGQERELVARIRSGGNTYYADSVKGRFTISRDNAKNTVYLQMNSLKPEDTAVYYCNADPRTGWYKYDYWGQGTQVTVSS” was “high polyreactivity”. The same measure for “QVQLVESGGGLVQAGGSLRLSCAASGRIFHGYAMGWYRQAPGKERELVAVIRSGVNTNYADSVKGRFTISRDNAKNTVYLQMNSLKPEDTAVYYCAVDYTPEDWGDDYWGQGTQVTVSS”: “low polyreactivity”; for “QVQLVESGGGLVQAGGSLRLSCAASGRIFHKYTMGRYRQAPGKERELVAAISFSTGNTFYADSVKGRFTISRDTANNTVFLQMNSLKPEDTAVYYCATDVLYPDYDYWGQGTQVTVSS”: “low polyreactivity”; for “QVQLVESGGGLVQAGGSLRLSCAASGRIFHRYAMGWDRQAPGKERELVAAINWRTGNTYYADSVKGRFTISRDNAKNTVYLQMNSLTPEDTAVYYCNARYRSDYWGIQYDYWGQGTQVTVSS”: “high polyreactivity”. On to “QVQLVESGGGLVQAGGSLRLSCAASGRIFHRYAMGWYRQAPGKERELVAAITRGGSTNYADSVKGRFTISRDNAKNTVYLQMNSLKPEDTAVYYCNADVYAWYLSHRYDYWGQGTQVTVSS”, for which the “polyreactivity (PSR sort gate)” value is reported as “low polyreactivity”.

On to “QVQLVESGGGLVQAGGSLRLSCAASGRIFHSYAMGWYRQAPGKERELVAAISSGGNTYYADSVKGRFTISRDNAKNTVYLQMNSLKPEDTAVYDCARDWDFLYDGFHSDSYEYWGQGTQVTVSS”, for which the “polyreactivity (PSR sort gate)” value is listed as “low polyreactivity”.

As for “QVQLVESGGGLVQAGGSLRLSCAASGRIFHSYAMGWYRQAPGKERELVASITWDSTSTNYADSVKGRFTISRDNAKNTVYLQMNSLKPEDTAVYYCNADESRYGFGYDYWGQGTQVTVSS”, the “polyreactivity (PSR sort gate)” value is listed as “low polyreactivity”. The value for “QVQLVESGGGLVQAGGSLRLSCAASGRIFHVNAMGWYRQAPGKEMDLVAAISTSGGRTYYADSVKGRFTISRDNAKNTVYLQMNSLKPEDTAVYYCAAVSRAPGLRYDYWGQGTQVTVSS” was “high polyreactivity”.

In the case of “QVQLVESGGGLVQAGGSLRLSCAASGRIFHWYAMGWYRQAPGKERELVAAIRWTGGSTYYADSVKGRFTISRDNAKNTVYLQMNSLKREDTAVYYCAAKGYTGIFYEMDYWGQGTQVTVSS”, the “polyreactivity (PSR sort gate)” value is listed as “low polyreactivity”. On to “QVQLVESGGGLVQAGGSLRLSCAASGRIFHYNTMGWYRQAPGKERELVAAITSSGGSTYYADSVKGRFTISRDNAKNTVYLQMNSLKPEDTAVYYCNAVFYRYGYKVDYWGQGTQVTVSS”, for which the “polyreactivity (PSR sort gate)” value is “high polyreactivity”.

Consider “QVQLVESGGGLVQAGGSLRLSCAASGRIFHYYAMGWYIKAPGKERELVAAITSSGGSTYYADSVKGRFTISRDNAKNTVYLKMNSLKPEDTAVYYCAARGRRVSAYYYWGQGTQVTVSS”, for which the “polyreactivity (PSR sort gate)” value is reported as “high polyreactivity”. The value for “QVQLVESGGGLVQAGGSLRLSCAASGRIFHYYAMGWYRQAPGKERELVAAISYSGTRTYYADSVKGRFTISRDNAKNTVYLQMNSLNPEDTAVYYCNAARSTNFDYWGQGTQVTVSS” was “high polyreactivity”; that for “QVQLVESGGGLVQAGGSLRLSCAASGRIFHYYAMGWYRQAPGKERELVADSSWSGGRTYYADSVKGRFTISRDNAKNTVYLQMNSLKPEDTAVYYCAAGHSYRPYYYYGEYDYWGQGTQVTVSS” was “high polyreactivity”. As to “QVQLVESGGGLVQAGGSLRLSCAASGRIFIDYAMGWYRQAPGKERELVATITSSGGSTYYADSVKGRFTISRDNAKNTVYLQMNSLKPEDTAVYYCNKEGSYDYDFWGQGTQVTVSS”, the “polyreactivity (PSR sort gate)” value is reported as “low polyreactivity”. On to “QVQLVESGGGLVQAGGSLRLSCAASGRIFIGNAMGWYRQAPGKERELVAAISRRGGTTYYADSVKGRFTISRDNAKNTVYLQMNSLKPEDTAVYYCNKEWTYEHGYWGQGTQVTVSS”, for which the “polyreactivity (PSR sort gate)” value is listed as “high polyreactivity”.

Take “QVQLVESGGGLVQAGGSLRLSCAASGRIFIGNAMGWYRQAPGKERELVAAITQSGGSTYYADSVKGRFTISRDNAKNTVYLQMNSLKPEDTAVYYCSKALRRPRSGGNPGQAYGYWGQGTQVTVSS”: the “polyreactivity (PSR sort gate)” value is on record as “low polyreactivity”. The value for “QVQLVESGGGLVQAGGSLRLSCAASGRIFIGYAMGWYRQAPGKERELVAAISRSGGSTYYADSVKGRFTISRDNAKYTVYLQMNSLKPEDTAVYYCAASPPFGYYYWGQGTQVTVSS” was “high polyreactivity”; that for “QVQLVESGGGLVQAGGSLRLSCAASGRIFIGYAMGWYRQAPGKERELVAAITSGGGTYYADSVKGRFTISRDNAKNTVYLQMNSLKPEDTAVYYCAAAQRYPIKYYYWGQGTQVTVSS” was “low polyreactivity”.

Regarding “QVQLVESGGGLVQAGGSLRLSCAASGRIFIIYAMGWYRQAPGTEREFVAAITSSGGSTYYADSVKGRFTISRDNAKNTVYLQMNSLKPEDTAVYYSAADSTEYTGDASYIGYDYWGQGTQVTVSS”, the “polyreactivity (PSR sort gate)” value is recorded as “high polyreactivity”. The value for “QVQLVESGGGLVQAGGSLRLSCAASGRIFIKNAMGWNRQAPGKERELVAAISDSGDSTYYADSVKGRFTISRDNAKNSVYLQMNSLKPEDTAVYYCAADGADHRSEMYYWGQGTQVTVSS” was “low polyreactivity”; that for “QVQLVESGGGLVQAGGSLRLSCAASGRIFILNTMGWYRQAPGKERELVAGISYSGSTYYADSVKGRFTISRDNAKNTVYLQMNSMKPEDTAVYYCAADYDAAWYNDGYYYWGQGTQVTVSS” was “low polyreactivity”. The value for “QVQLVESGGGLVQAGGSLRLSCAASGRIFIPYAMAWYRQAPGNERELVAAISSSGGSTYYADSVKGRFTISRDNAKNTVYLQMNSLKPEDTAVYYCSALLYWWYAYETYSSLFEYDYWGQGTLVTVSS” was “low polyreactivity”; that for “QVQLVESGGGLVQAGGSLRLSCAASGRIFIRNAMGWYRQAPGKEREFVAAISYGGSTYYADSVKGRFTISRDNAKNTVYLQMNSLKPEDTAVYYCAARVLPYLTPRRQMYYWGQGTQVTVSS” was “low polyreactivity”.
